Reference: the supplement of paper PMC6755084

Test system: F1*sub RNA substrate (template-directed ligation)
Assay: fraction ligated after 30 min (ligated reads / total reads); higher = more ligase activity; sequences stand for … in GAGACCGCAACTGAAAAGTTGT…AGTTCTGCACGTAGAAGCAAAAGGC
Settings: 42 °C
Description: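 Chip-synthesised pool of F1* ligase ribozyme variants (all single and double substitutions, single, double and triple deletions in the catalytic core and GAA bulge, plus designed variants) was transcribed with T7 and reacted as a pool with excess substrate F1*sub for 30 min at 42 C in 50 mM EPPS pH 8.5, 25 mM MgCl2. Ligated and unligated bands were separated by PAGE, barcoded by RT and deep sequenced; fraction ligated = ligated reads / total reads per variant, relative activity = FL / FL of wild type (0.826). Sequences are the DNA template of the ribozyme.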

Row | Sequence | fraction ligated
1 | CACTTGTCGTAAGACACTTTGGATGGGTTGA [3d1] | 0.637
2 | GGTATCACTTGTCGTAAGACACTTTGGATGTTGA [s36] | 0.000954
3 | GGTTATCACTTGTCGTAAGACACTTTGGATGTGA [s37] | 0
4 | GTATCACTTGTCGTAAGACACTTTGGATGGTTGA [s35] | 0.242
5 | TAACTGTCGTAAGACACTTTGGATGGGTTGA [3d509] | 0.175
6 | TAACTTGCGTAAGACACTTTGGATGGGTTGA [3d511] | 0.085
7 | TAACTTGTCGAAGACACTTTGGATGGGTTGA [3d514] | 0.112
8 | TAACTTGTCGTAAACACTTTGGATGGGTTGA [3d516] | 0.0735
9 | TAACTTGTCGTAAGAACTTTGGATGGGTTGA [3d518] | 0.21
10 | TAACTTGTCGTAAGACACTTGGATGGGTTGA [3d521] | 0.266
11 | TAACTTGTCGTAAGACACTTTGATGGGTTGA [3d522] | 0.0453
12 | TAACTTGTCGTAAGACACTTTGGAGGGTTGA [3d524] | 0.0881
13 | TAACTTGTCGTAAGACACTTTGGATGGGTTA [3d526] | 0.0297
14 | TAACTTGTCGTAAGACACTTTGGATGGGTTG [3d527] | 0.153
15 | TAACTTGTCGTAAGACACTTTGGATGGGTTGA [2d47] | 0.271
16 | TAACTTGTCGTAAGACACTTTGGATGGTTGA [3d525] | 0.309
17 | TAACTTGTCGTAAGACACTTTGGTGGGTTGA [3d523] | 0.0256
18 | TAACTTGTCGTAAGACATTTGGATGGGTTGA [3d520] | 0.38
19 | TAACTTGTCGTAAGACCTTTGGATGGGTTGA [3d519] | 0.196
20 | TAACTTGTCGTAAGCACTTTGGATGGGTTGA [3d517] | 0.142
21 | TAACTTGTCGTAGACACTTTGGATGGGTTGA [3d515] | 0.177
22 | TAACTTGTCTAAGACACTTTGGATGGGTTGA [3d513] | 0.123

Row | Sequence | fraction ligated
23 | TAACTTGTGTAAGACACTTTGGATGGGTTGA [3d512] | 0.547
24 | TAACTTTCGTAAGACACTTTGGATGGGTTGA [3d510] | 0.0478
25 | TAATTGTCGTAAGACACTTTGGATGGGTTGA [3d508] | 0.0528
26 | TACACGTCGTAAGACACTTTGGATGGGTTGA [3d566] | 0.266
27 | TACACTGCGTAAGACACTTTGGATGGGTTGA [3d568] | 0.177
28 | TACACTGTCGAAGACACTTTGGATGGGTTGA [3d571] | 0.346
29 | TACACTGTCGTAAACACTTTGGATGGGTTGA [3d573] | 0.181
30 | TACACTGTCGTAAGAACTTTGGATGGGTTGA [3d575] | 0.162
31 | TACACTGTCGTAAGACACTTGGATGGGTTGA [3d578] | 0.394
32 | TACACTGTCGTAAGACACTTTGATGGGTTGA [3d579] | 0.279
33 | TACACTGTCGTAAGACACTTTGGAGGGTTGA [3d581] | 0.292
34 | TACACTGTCGTAAGACACTTTGGATGGGTTA [3d583] | 0.069
35 | TACACTGTCGTAAGACACTTTGGATGGGTTG [3d584] | 0.321
36 | TACACTGTCGTAAGACACTTTGGATGGGTTGA [2d50] | 0.432
37 | TACACTGTCGTAAGACACTTTGGATGGTTGA [3d582] | 0.375
38 | TACACTGTCGTAAGACACTTTGGTGGGTTGA [3d580] | 0.151
39 | TACACTGTCGTAAGACATTTGGATGGGTTGA [3d577] | 0.617
40 | TACACTGTCGTAAGACCTTTGGATGGGTTGA [3d576] | 0.752
41 | TACACTGTCGTAAGCACTTTGGATGGGTTGA [3d574] | 0.463
42 | TACACTGTCGTAGACACTTTGGATGGGTTGA [3d572] | 0.322
43 | TACACTGTCTAAGACACTTTGGATGGGTTGA [3d570] | 0.266
44 | TACACTGTGTAAGACACTTTGGATGGGTTGA [3d569] | 0.632

Row | Sequence | fraction ligated
45 | TACACTTCGTAAGACACTTTGGATGGGTTGA [3d567] | 0.0399
46 | TACACTTGCGAAGACACTTTGGATGGGTTGA [3d603] | 0.157
47 | TACACTTGCGTAAACACTTTGGATGGGTTGA [3d605] | 0.036
48 | TACACTTGCGTAAGAACTTTGGATGGGTTGA [3d607] | 0.015
49 | TACACTTGCGTAAGACACTTGGATGGGTTGA [3d610] | 0.0197
50 | TACACTTGCGTAAGACACTTTGATGGGTTGA [3d611] | 0.0347
51 | TACACTTGCGTAAGACACTTTGGAGGGTTGA [3d613] | 0.044
52 | TACACTTGCGTAAGACACTTTGGATGGGTTA [3d615] | 0.013
53 | TACACTTGCGTAAGACACTTTGGATGGGTTG [3d616] | 0.118
54 | TACACTTGCGTAAGACACTTTGGATGGGTTGA [2d52] | 0.115
55 | TACACTTGCGTAAGACACTTTGGATGGTTGA [3d614] | 0.102
56 | TACACTTGCGTAAGACACTTTGGTGGGTTGA [3d612] | 0.0235
57 | TACACTTGCGTAAGACATTTGGATGGGTTGA [3d609] | 0.422
58 | TACACTTGCGTAAGACCTTTGGATGGGTTGA [3d608] | 0.0714
59 | TACACTTGCGTAAGCACTTTGGATGGGTTGA [3d606] | 0.764
60 | TACACTTGCGTAGACACTTTGGATGGGTTGA [3d604] | 0.0967
61 | TACACTTGCTAAGACACTTTGGATGGGTTGA [3d602] | 0.196
62 | TACACTTGGTAAGACACTTTGGATGGGTTGA [3d601] | 0.0847
63 | TACACTTGTCAAGACACTTTGGATGGGTTGA [3d632] | 0.167
64 | TACACTTGTCGAAACACTTTGGATGGGTTGA [3d647] | 0.16
65 | TACACTTGTCGAAGAACTTTGGATGGGTTGA [3d649] | 0.195
66 | TACACTTGTCGAAGACACTTGGATGGGTTGA [3d652] | 0.109

Row | Sequence | fraction ligated
67 | TACACTTGTCGAAGACACTTTGATGGGTTGA [3d653] | 0.0665
68 | TACACTTGTCGAAGACACTTTGGAGGGTTGA [3d655] | 0.126
69 | TACACTTGTCGAAGACACTTTGGATGGGTTA [3d657] | 0.13
70 | TACACTTGTCGAAGACACTTTGGATGGGTTG [3d658] | 0.593
71 | TACACTTGTCGAAGACACTTTGGATGGGTTGA [2d55] | 0.603
72 | TACACTTGTCGAAGACACTTTGGATGGTTGA [3d656] | 0.505
73 | TACACTTGTCGAAGACACTTTGGTGGGTTGA [3d654] | 0.115
74 | TACACTTGTCGAAGACATTTGGATGGGTTGA [3d651] | 0.444
75 | TACACTTGTCGAAGACCTTTGGATGGGTTGA [3d650] | 0.1
76 | TACACTTGTCGAAGCACTTTGGATGGGTTGA [3d648] | 0.134
77 | TACACTTGTCGAGACACTTTGGATGGGTTGA [3d646] | 0.195
78 | TACACTTGTCGTAAAACTTTGGATGGGTTGA [3d672] | 0.0463
79 | TACACTTGTCGTAAACACTTGGATGGGTTGA [3d675] | 0.0236
80 | TACACTTGTCGTAAACACTTTGATGGGTTGA [3d676] | 0.0132
81 | TACACTTGTCGTAAACACTTTGGAGGGTTGA [3d678] | 0.0486
82 | TACACTTGTCGTAAACACTTTGGATGGGTTA [3d680] | 0.00723
83 | TACACTTGTCGTAAACACTTTGGATGGGTTG [3d681] | 0.0503
84 | TACACTTGTCGTAAACACTTTGGATGGGTTGA [2d57] | 0.0886
85 | TACACTTGTCGTAAACACTTTGGATGGTTGA [3d679] | 0.101
86 | TACACTTGTCGTAAACACTTTGGTGGGTTGA [3d677] | 0.0298
87 | TACACTTGTCGTAAACATTTGGATGGGTTGA [3d674] | 0.457
88 | TACACTTGTCGTAAACCTTTGGATGGGTTGA [3d673] | 0.0569

Row | Sequence | fraction ligated
89 | TACACTTGTCGTAACACTTTGGATGGGTTGA [3d660] | 0.00473
90 | TACACTTGTCGTAAGAACTTGGATGGGTTGA [3d693] | 0.00498
91 | TACACTTGTCGTAAGAACTTTGATGGGTTGA [3d694] | 0.00588
92 | TACACTTGTCGTAAGAACTTTGGAGGGTTGA [3d696] | 0.0171
93 | TACACTTGTCGTAAGAACTTTGGATGGGTTA [3d698] | 0.00405
94 | TACACTTGTCGTAAGAACTTTGGATGGGTTG [3d699] | 0.00593
95 | TACACTTGTCGTAAGAACTTTGGATGGGTTGA [2d59] | 0.0167
96 | TACACTTGTCGTAAGAACTTTGGATGGTTGA [3d697] | 0.0122
97 | TACACTTGTCGTAAGAACTTTGGTGGGTTGA [3d695] | 0.0304
98 | TACACTTGTCGTAAGAATTTGGATGGGTTGA [3d692] | 0.123
99 | TACACTTGTCGTAAGACACTGGATGGGTTGA [3d714] | 0.191
100 | TACACTTGTCGTAAGACACTTGATGGGTTGA [3d715] | 0.0512
101 | TACACTTGTCGTAAGACACTTGGAGGGTTGA [3d717] | 0.0172
102 | TACACTTGTCGTAAGACACTTGGATGGGTTA [3d719] | 0.0331
103 | TACACTTGTCGTAAGACACTTGGATGGGTTG [3d720] | 0.106
104 | TACACTTGTCGTAAGACACTTGGATGGGTTGA [2d62] | 0.183
105 | TACACTTGTCGTAAGACACTTGGATGGTTGA [3d718] | 0.0649
106 | TACACTTGTCGTAAGACACTTGGTGGGTTGA [3d716] | 0.0903
107 | TACACTTGTCGTAAGACACTTTATGGGTTGA [3d721] | 0.0103
108 | TACACTTGTCGTAAGACACTTTGAGGGTTGA [3d723] | 0.0442
109 | TACACTTGTCGTAAGACACTTTGATGGGTTA [3d725] | 0.0317
